Tests used:
[1] = target: T1, human monocarboxylate transporter 1 (MCT1) (human, UniProt P53985 1-500); test: cell-based MCT1 binding
T1 construct: Multi-pass transmembrane transporter, endogenous on HEK WT / HEK293T cells and on primary human T and B cells in the assays; also called human MCT1; SLC16A1
T1 sequence: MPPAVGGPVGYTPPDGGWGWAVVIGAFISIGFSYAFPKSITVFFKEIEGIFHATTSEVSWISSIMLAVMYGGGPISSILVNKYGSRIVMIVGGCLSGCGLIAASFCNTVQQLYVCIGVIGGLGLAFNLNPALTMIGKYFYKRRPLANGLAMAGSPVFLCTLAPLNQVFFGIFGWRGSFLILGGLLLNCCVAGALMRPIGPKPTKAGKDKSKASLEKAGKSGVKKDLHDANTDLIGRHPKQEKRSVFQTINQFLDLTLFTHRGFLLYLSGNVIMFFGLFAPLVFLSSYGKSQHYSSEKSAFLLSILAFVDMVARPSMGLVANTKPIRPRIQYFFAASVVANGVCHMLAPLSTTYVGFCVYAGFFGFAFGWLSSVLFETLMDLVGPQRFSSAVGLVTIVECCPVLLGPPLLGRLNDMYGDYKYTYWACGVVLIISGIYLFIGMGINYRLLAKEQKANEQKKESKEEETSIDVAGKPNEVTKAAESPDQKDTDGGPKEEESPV

[2] = target: T2, human FcγRI (CD64) extracellular domain (human, UniProt P12314 16-292); test: SPR (Biacore T100), antibody captured on Protein A, FcγR ECD as analyte, 25 C
T2 construct: extracellular domain; also called FcγRI ECD
Procedure: Unreacted sites were blocked with a 7 minute injection of ethanolamine at 10 μL/minute. […] FC1 was the reference FC, therefore no antibody was captured in FC1. […] Regeneration was performed by injecting 15 μL of 10 mM glycine, pH 1.5, at 30 μL/minute over all FCs. […] The affinity (KD) was calculated using either steady state equilibrium analysis with the Scrubber 2 Biacore Evaluation Software or a “1:1 (Langmuir) binding” model in BIA Evaluation. […] Duplicate injections of each concentration were injected over all FCs at 40 μL/minute for 60 seconds followed by a 120 second dissociation phase. […] The affinity (KD) was calculated using the steady state equilibrium analysis with the Scrubber 2 Biacore Evaluation Software.

[3] = target: T1, human monocarboxylate transporter 1 …; test: cell-based or functional assay
[4] = target: T1, human monocarboxylate transporter 1 …; test: cell-based or functional assay; remark: listed apart in the source
[5] = target: T1, human monocarboxylate transporter 1 …; test: competition MSD binding assay, antibody titrated with HEK WT cells expressing MCT1, apparent KD, screening at 25 C
Procedure: The mix was incubated at 37° C. for 1-2 days. After incubation, the incubated samples were spun down for 5 min at 500×g to remove cells. A 96-well multi-array plate (Meso Scale Diagnostics, Cat. #L15XA-3) was coated at 4° C. overnight with 1 μg/mL of goat anti human FC in phosphate buffered saline (PBS). Following coating, plates were washed 3 times with 150 μL PBST (PBS with 0.05% Tween 20) and blocked with 150 μL/well of PBS 3% blocker A buffer (Cat #R93BA-1) at 25° C. for 1 hr. Plates were then washed 3 times with PBST. 50 μL of the preincubated antibody: cell dilution series was transferred to the wells and incubated at 25° C. with 700 rpm shaking for 1 hr. Plates were washed 3 times with PBST. Then 100 μL of 1 μg/mL anti-human kappa-biotin antibody (Cat. #2060-08) was added, and plates were incubated at 25° C. with 700 rpm shaking […]. Plates were washed 3 times with PBST, followed by addition of 100 μL of 1 μg/mL MSD Sulfo-tag streptavidin antibody (Meso Scale Diagnostics Cat. #R32 AD1), and plates were incubated at 25° C. with 700 rpm shaking for 1 hr. Plates were washed 3 times with PBST, 150 μL/well of 1× Read Buffer T was added to the wells and analyzed on a SECTOR® Imager 6000 (Meso Scale Diagnostics) 15 min after buffer addition. The apparent KD is determined by fitting a sigmoidal curve to the electrochemiluminescence (ECL) response vs. log (MCT1 receptor concentration) using assay development tool kit graphed with normalized ECL values.

[6] = target: T1, human monocarboxylate transporter 1 …; test: competition MSD binding assay, antibody titrated with HEK WT cells expressing MCT1, apparent KD, 37 C, average of triplicate
From the text: Plates were then washed 3 times with PBST. […] Plates were washed 3 times with PBST.

T2 sequence (P12314 16-292): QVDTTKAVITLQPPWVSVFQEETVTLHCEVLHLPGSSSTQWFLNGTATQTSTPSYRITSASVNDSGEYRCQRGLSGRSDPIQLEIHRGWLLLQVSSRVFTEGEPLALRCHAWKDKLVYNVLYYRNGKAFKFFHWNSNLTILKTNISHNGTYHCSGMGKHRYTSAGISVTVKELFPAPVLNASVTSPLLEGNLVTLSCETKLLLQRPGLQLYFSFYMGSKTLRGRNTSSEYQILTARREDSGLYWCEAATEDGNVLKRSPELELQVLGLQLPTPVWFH

Binder	binding result [1]	binding result [2]	IC50 of inhibition of MCT1 mediated transport (bromopyruvate assay, HEK293T cells) [3]	IC50 of inhibition of CD4 T cell proliferation [4]	IC50 of inhibition of CD8 T cell proliferation [4]	Kd [5]	Kd [6]
anti-human MCT1 antibody Ab3 (antibody, human IgG1, kappa, V domains shown, IgG1EN backbone) VH: EVQLVESGGGLVQPGGSLRLSCTVSGFSLTNYHLQWVRQAPGKGLEWVGFIRSSGNTEYNSEFKSRFTISRDDSKNSLYLQMNSLKTEDTAVYYCARNSWYHGTYYSPGYYVMDAWGQGTLVTVSS VL: DIQMTQSPSTLSASVGDRVTITCKGSQNINNYLAWYQQKPGKAPKLLIYNRHNLQTGVPSRFSGSGSGTEFTLTISSLQPDDFATYYCYQYSDGYTFGGGTKVEIKR	binds						
anti-human MCT1 antibody Ab5 (antibody, human IgG1, kappa, V domains shown, IgG1EN backbone) VH: EVQLVQSGAEVKKPGESLKISCTVSGFSLTNYHLQWVRQMPGKGLEWMGFIRSSGNTEYNSEFKSQVTISADKSISTAYLQWSSLKASDTAMYYCARNSWYHGTYYSPGYYVMDAWGQGTLVTVSS VL: DIQMTQSPSSLSASVGDRVTITCKGSQNINNYLAWYQQKPGKAPKLLIYNRHNLQTGVPSRFSGSGSGTDFTLTISSLQPEDFATYYCYQYSDGYTFGGGTKVEIKR	binds						
anti-human MCT1 antibody Ab4 (antibody, human IgG1, kappa, V domains shown, IgG1EN backbone) VH: EVQLVESGGGLVKPGGSLRLSCTVSGFSLTNYHLQWVRQAPGKGLEWVGFIRSSGNTEYNSEFKSRFTISRDDSKNTLYLQMNSLKTEDTAVYYCARNSWYHGTYYSPGYYVMDAWGQGTLVTVSS VL: DIQMTQSPSSLSASVGDRVTITCKGSQNINNYLAWYQQKPGKAPKLLIYNRHNLQTGVPSRFSGSGSGTDFTLTISSLQPEDFATYYCYQYSDGYTFGGGTKVEIKR	binds						
INX444 IgG1EN (antibody, INX444 of WO19136300 converted to the IgG1EN backbone (L234A, L235E, G237A, A330S, P331S, EU numbering)) heavy: QVQLKESGPGLVKPSQTLSLTCTVSGFSLTNYHLQWVRQPPGKGLEWIGFIRSSGNTEYNPSLKSRVTISRDTSKNQVSLKLSSVTAADTAVYYCARKRWVHGTWYSPGYYVMDAWGQGTLVTVSSASTKGPSVFPLAPSSKSTSGGTAALGCLVKDYFPEPVTVSWNSGALTSGVHTFPAVLQSSGLYSLSSVVTVPSSSLGTQTYICNVNHKPSNTKVDKRVEPKSCDKTHTCPPCPAPEAEGAPSVFLFPPKPKDTLMISRTPEVTCVVVDVSHEDPEVKFNWYVDGVEVHNAKTKPREEQYNSTYRVVSVLTVLHQDWLNGKEYKCKVSNKALPSSIEKTISKAKGQPREPQVYTLPPSREEMTKNQVSLTCLVKGFYPSDIAVEWESNGQPENNYKTTPPVLDSDGSFFLYSKLTVDKSRWQQGNVFSCSVMHEALHNHYTQKSLSLSPGK light: DIQLTQSPSAMSASVGDRVTITCRASQGISNYLAWYQQKPGKAPKLLIYAASTLQSGVASRFSGRGSGTDFTLTISSLQPEDFATYYCQQSDILPYTFGQGTKVEIKRTVAAPSVFIFPPSDEQLKSGTASVVCLLNNFYPREAKVQWKVDNALQSGNSQESVTEQDSKDSTYSLSSTLTLSKADYEKHKVYACEVTHQGLSSPVTKSFNRGEC		no binding (tested: 200 nM)					
anti-human MCT1 antibody Ab1 (antibody, human IgG1, kappa, V domains shown, human IgG1 effector null (IgG1EN) backbone; also called humanized Framework antibody Ab1) VH: QVQLVQSGAEVKKPGASVKVSCTVSGFSLTNYHLQWVRQAPGQGLEWMGFIRSSGNTEYNSEFKSRVTMTRDTSTSTVYMELSSLRSEDTAVYYCARNSWYHGTYYSPGYYVMDAWGQGTLVTVSS VL: EIVLTQSPGTLSLSPGERATLSCKGSQNINNYLAWYQQKPGQAPRLLIYNRHNLQTGIPDRFSGSGSGTDFTLTISRLEPEDFAVYYCYQYSDGYTFGGGTKVEIKR			164 nM	59 nM	42 nM	5.81 nM	1.23 nM
anti-human MCT1 antibody Ab2 (antibody, human IgG1, kappa, V domains shown, IgG1EN backbone) VH: QVQLVQSGAEVKKPGASVKVSCTVSGFSLTNYHLQWVRQAPGQGLEWMGFIRSSGNTEYNSEFKSRVTMTRDTSTSTVYMELSSLRSEDTAVYYCARNSWYHGTYYSPGYYVMDAWGQGTLVTVSS VL: DIQMTQSPSTLSASVGDRVTITCKGSQNINNYLAWYQQKPGKAPKLLIYNRHNLQTGVPSRFSGSGSGTEFTLTISSLQPDDFATYYCYQYSDGYTFGGGTKVEIKR	binds						
anti-human MCT1 antibody Ab21 (antibody, human IgG1, kappa, V domains shown, IgG1EN backbone) VH: QVQLVQSGAEVKKPGASVKVSCTVSGRSLTNYHLQWVRQAPGQGLEWMGFIRSSGNTEYNSEFKSRVTMTRDTSTSTVYMELSSLRSEDTAVYYCARNRWYHGTYYSPGYYVMDPWGQGTLVTVSS VL: EIVLTQSPGTLSLSPGERATLSCKGSQNINNYLAWYQQKPGQAPRLLIYNRHNLQTGIPDRFSGSGSGTDFTLTISRLEPEDFAVYYCYQYSDGYTFGGGTKVEIKR			50 nM	6 nM	4 nM	0.85 nM	
anti-human MCT1 antibody Ab19 (antibody, human IgG1, kappa, V domains shown, IgG1EN backbone) VH: QVQLVQSGAEVKKPGASVKVSCTVSGRSLTNYHLQWVRQAPGQGLEWMGFIRRSGNTEYNSEFKSRVTMTRDTSTSTVYMELSSLRSEDTAVYYCARNRWYHGTYYSPGYYVMDAWGQGTLVTVSS VL: EIVLTQSPGTLSLSPGERATLSCKGSQNIENYLAWYQQKPGQAPRLLIYNRHNLQTGIPDRFSGSGSGTDFTLTISRLEPEDFAVYYCYQYSDGYTFGGGTKVEIKR			35 nM	5 nM	3 nM	0.46 nM	
anti-human MCT1 antibody Ab20 (antibody, human IgG1, kappa, V domains shown, IgG1EN backbone) VH: QVQLVQSGAEVKKPGASVKVSCTVSGRSLTNYHLQWVRQAPGQGLEWMGFIRSSGNTEYNSEFKSRVTMTRDTSTSTVYMELSSLRSEDTAVYYCARNLWYHGTYYSPGYYVMDAWGQGTLVTVSS VL: EIVLTQSPGTLSLSPGERATLSCKGSQNINNYLAWYQQKPGQAPRLLIYNRHNLQTGIPDRFSGSGSGTDFTLTISRLEPEDFAVYYCYQYSDGYTFGGGTKVEIKR			83 nM	13 nM	6 nM	0.64 nM	
anti-human MCT1 antibody Ab18 (antibody, human IgG1, kappa, V domains shown, IgG1EN backbone) VH: QVQLVQSGAEVKKPGASVKVSCTVSGRSLTNYHLGWVRQAPGQGLEWMGFIRSSGNTEYNSEFKSRVTMTRDTSTSTVYMELSSLRSEDTAVYYCARNRWYHGTYYSPGYYVMDAWGQGTLVTVSS VL: EIVLTQSPGTLSLSPGERATLSCKGSQNIENYLAWYQQKPGQAPRLLIYNRHNLQTGIPDRFSGSGSGTDFTLTISRLEPEDFAVYYCYQYSDGYTFGGGTKVEIKR			41 nM	6 nM	2 nM	5.14 nM	

From US20230111363A1 (LMMUNOMETABOLISM DEVELOPMENT, published 2023)
